According to US20080125491A1 (ARENA PHARMACEUTICALS, published 2008):
Read-outs that look alike come from different tables or passages of the source.

What was measured:
Experiment in all cases: cell-based or functional assay
[1] = target: HA/V5 double-tagged endogenous human FPR (human) (UniProt P21462)
[2] = target: HA/V5 double tagged endogenous human FPRL2 (human)
[3] = target: HA/V5 double-tagged endogenous human FPRL1 (human) (UniProt P25090)
[4] = target: T1, HA/V5 double tagged endogenous human FPRL2 (human)
T1 chain: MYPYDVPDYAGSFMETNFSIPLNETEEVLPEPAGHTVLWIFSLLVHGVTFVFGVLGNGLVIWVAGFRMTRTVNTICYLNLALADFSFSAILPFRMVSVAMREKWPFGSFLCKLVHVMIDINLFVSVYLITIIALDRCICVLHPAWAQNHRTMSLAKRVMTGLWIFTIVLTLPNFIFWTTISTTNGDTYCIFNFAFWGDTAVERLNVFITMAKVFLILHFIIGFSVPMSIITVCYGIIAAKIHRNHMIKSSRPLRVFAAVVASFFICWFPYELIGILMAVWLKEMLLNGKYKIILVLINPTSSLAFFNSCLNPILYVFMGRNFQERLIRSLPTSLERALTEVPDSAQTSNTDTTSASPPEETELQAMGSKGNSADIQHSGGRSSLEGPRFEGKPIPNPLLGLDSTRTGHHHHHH

Sequence of HA/V5 double-tagged endogenous human FPR (human) (P21462 other isoform, or with tags, fused parts or gaps): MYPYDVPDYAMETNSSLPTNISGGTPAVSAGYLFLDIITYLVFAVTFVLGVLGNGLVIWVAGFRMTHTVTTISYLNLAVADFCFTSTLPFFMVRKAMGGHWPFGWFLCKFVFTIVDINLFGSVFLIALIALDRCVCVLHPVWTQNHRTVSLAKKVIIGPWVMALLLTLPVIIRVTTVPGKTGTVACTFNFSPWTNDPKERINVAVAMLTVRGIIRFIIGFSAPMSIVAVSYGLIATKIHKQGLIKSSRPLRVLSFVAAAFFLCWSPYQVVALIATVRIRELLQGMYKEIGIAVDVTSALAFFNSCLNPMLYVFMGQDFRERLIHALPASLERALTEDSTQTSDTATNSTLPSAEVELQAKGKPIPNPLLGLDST
Sequence of HA/V5 double-tagged endogenous human FPRL1 (human) (P25090 other isoform, or with tags, fused parts or gaps): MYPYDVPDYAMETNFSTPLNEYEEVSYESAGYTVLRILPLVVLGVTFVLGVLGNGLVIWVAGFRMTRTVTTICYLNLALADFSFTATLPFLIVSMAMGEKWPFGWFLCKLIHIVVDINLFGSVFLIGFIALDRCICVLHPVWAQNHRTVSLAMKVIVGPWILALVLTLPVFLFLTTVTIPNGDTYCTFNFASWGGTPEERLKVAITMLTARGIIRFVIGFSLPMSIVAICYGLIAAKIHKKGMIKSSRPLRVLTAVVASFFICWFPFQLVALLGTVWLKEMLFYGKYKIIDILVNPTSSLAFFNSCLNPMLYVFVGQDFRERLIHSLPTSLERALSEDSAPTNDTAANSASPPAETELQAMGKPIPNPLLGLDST

Question: Which [35S]GTPγS binding to membranes of transiently transfected CHO cells; highest dose without significant activity [1] does the source give for [Gly14]-Humanin (peptide) here?
Answer: The [35S]GTPγS binding to membranes of transiently transfected CHO cells; highest dose without significant activity was greater than 10 µM.

Question: And the EC50, [35S]GTPγS binding to membranes of transiently transfected CHO cells [2]?
Answer: Its EC50, [35S]GTPγS binding to membranes of transiently transfected CHO cells is 72 nM.

Question: And the EC50, [35S]GTPγS binding to membranes of transiently transfected CHO cells [3]?
Answer: The EC50, [35S]GTPγS binding to membranes of transiently transfected CHO cells was 1500 nM.

B1: Humanin (peptide)
peptide: MAPRGFSCLLLLTSEIDLPVKRRA
Question: What does the source list for B1?
Answer: EC50, [35S]GTPγS binding to membranes of transiently transfected CHO cells [4]: ~320 nM; EC50 of Humanin driven pigment aggregation in melanophore (Gi coupling) [4]: ~239 nM
